Patent US7138497 (CHIRON, dated 2006)

B1: 741F8/26-10 (sFv')2 heterodimer (bispecific antibody)
scFv 1: MAEIQLVQSGPELKKPGETVKISCKASGYTFTNYGMNWVKQAPGKGLKWMGWINTNTGEPTYAEEFKGRFAFSLETSASTAYLQINNLKNEDTATYFCGRQFITYGGFANWGQGTLVTVSASSSSGSSSSGSSSSDIVMTQSPKFMSTSVGDRVSISCKASQDVSTAVAWYQQKPGQSPKLLIYWTSTRHTGVPDRFTGSGSGTDYTLTISSVQAEDLALHYCQQHYRVPYTFGGGTKLEIKRADGGGGC
scFv 2: MEVQLQQSGPELVKPGASVRMSCKSSGYIFTDFYMNWVRQSHGKSLDYIGYISPYSGVTGYNQKFKGKATLTVDKSSSTAYMELRSLTSEDSAVYYCAGSSGNKWAMDYWGHGASVTVSSSGSSSSGSSSSGSDVVMTQTPLSLPVSLGDQASISCRSSQSLVHSNGNTYLNWYLQKAGQSPKLLIYKVSNRFSGVPDRFSGSGSGTDFTLKISRVEAEDLGIYFCSQTTHVPPTFGGGTKLEIKRSGGGGC
modifications: C-terminal cysteine of the (Gly)4-Cys tail disulfide linked to the other chain
notes: Made by reacting 26-10 sFv'-TNB with reduced 741F8 sFv'; also called 741F8/26-10 heterodimer
B2: Fab fragment of the 520C9 monoclonal antibody (Fab, V domains shown)
VH: EIQLVQSGPELKKPGETVKISCKASGYTFANYGMNWMKQAPGKGLKWMGWINTYTGQSTYADDFKERFAFSLETSATTAHLQINNLRNEDSATYFCARRFGFAYWGQGTLVSVSA
VL: DIQMTQSPSSLSASLGERVSLTCRASQDIGNSLTWLQQEPDGTIKRLIYATSSLDSGVPKRFSGSRSGSDYSLTISSLESEDFVVYYCLQYAIFPYTFGGGTNLEIK
notes: Fab of the parental murine monoclonal antibody 520C9; The limits of VH (1-115) are derived from the printed linker position; also called 520C9 Fab; parental 520C9 Fab fragment
B3: 520C9 sFv single-chain binding protein (scFv)
scFv: EIQLVQSGPELKKPGETVKISCKASGYTFANYGMNWMKQAPGKGLKWMGWINTYTGQSTYADDFKERFAFSLETSATTAHLQINNLRNEDSATYFCARRFGFAYWGQGTLVSVSASISSSSGSSSSGSSSSGSDIQMTQSPSSLSASLGERVSLTCRASQDIGNSLTWLQQEPDGTIKRLIYATSSLDSGVPKRFSGSRSGSDYSLTISSLESEDFVVYYCLQYAIFPYTFGGGTNLEIKRAD
notes: also called biosynthetic 520C9 sFv

Tests used:
[1] = molecular target: T1, c-erbB-2 extracellular domain (ECD) with His6 peptide, attached to agarose beads (UniProt P04626 23-652, limits assumed); assay: affinity chromatography on c-erbB-2 ECD-agarose, eluted with 5M LiCl
T1 construct: extracellular domain; Expressed in CHO cells, purified by IMAC, coupled to agarose beads
Description: The (sFv')_2 heterodimers can be separated by a two step affinity chromatography procedure taking advantage of the bivalent nature of the dimer. For instance, during the purification of the 741F8/26-10 heterodimer the mixture initially was loaded onto an ouabain-Sepharose column, washed with a PBS, 1 M NaCl buffer, to remove any non-specifically adsorbed material, and rewashed with PBS to reduce the salt concentration. The reactive 26-10 sFv' species bound to the resin were eluted with 20 mM ouabain in PBS and the eluate dialyzed against PBS to remove the cardiac glycoside. The 741F8/26-10 heterodimers were then repurified on a c-erbB-2-agarose affinity column taking advantage of the ECD binding site in the heterodimer. […] Prior to use, the buffer was exchanged with PBS by dialysis.

[2] = molecular target: T2, c-erbB-2 (extract of SK-Br-3 breast cancer cells coated on the plate) (UniProt P04626 23-1255); assay: competition ELISA, SK-Br-3 extract on plate, 520C9-HRP probe as competitor
T2 construct: Crude detergent extract of the cells, not purified protein; also called c-erbB-2 antigen
Description: In order to prepare c-erbB-2, SK-Br-3 breast cancer cells (Ring et al., 1989, Cancer Res. 49: 3070–3080), were harvested and resuspended in 10 mM NaCl, 0.5% Nonidet-P40, pH 8. Insoluble debris was removed by centrifugation and the extract filtered through 0.45 Millex HA and 0.2 Millex GV filters. 40µl of the extract was added to each well of a 96 well plate and incubated overnight at 37° C. The plates then were washed with PBS and non-specific binding sites blocked following the addition of PBS containing 1% skim milk by incubation for one hour at room temperature. The sFv and 520C9 Fab samples, diluted in PBS, were added to the wells and incubated for 30 mins at room temperature. A control containing only dilution buffer was also included.
In order to quantitate the reaction, 20µl of a 520C9-horseradish peroxidase (HRP) probe (Zymed Labs., South San Francisco, Calif.), diluted to 14 µl/ml in PBS containing 1% skim milk, was added to each well and incubated for one hour at room temperature. The plate was then washed four times with PBS, the peroxidase substrate added and incubated for 30 minutes at room temperature. The reaction was quenched with H_2SO_4 and the […] values measured.

[3] = molecular target: T1, c-erbB-2 extracellular domain (ECD) …; assay: affinity chromatography on c-erbB-2 ECD-agarose
Description: The refolded 26-10 sFv' polypeptide chains were purified by ouabain-Sepharose affinity chromatography, as described for the 26-10 sFv constructs (Huston, et. al., 1988, *Proc. Natl Acad. Sci. USA* 85; 5879–5883 and Tai, et al., 1990, *Biochem.* 29, 8024–[…], both of which are hereby incorporated by reference). The refolded 520C9 sFv polypeptide chain was similarly purified using a c-erbB-2-agarose affinity column. […] The buffer was then exchanged by dialysis. The c-erbB-2 affinity column preferably was prepared by linking the extracellular domain of c-erbB-2 onto agarose beads.

| Binder | binding result [1] | binding result [2] | binding result [3] |
| --- | --- | --- | --- |
| B1 | binds | – | – |
| B2 | – | binds | – |
| B3 | – | binds | binds |
